# Assay results reported in US20070179113A1, “GM-CSF gene therapy for Crohn's disease using an improved regulated expression system” (Schering Aktiengesellachaft, priority 2005, published 2007).
# Assays:
# [1] = Pharmacokinetic study of mGM-CSF protein formulations, serum mGM-CSF ELISA; type: in vivo, BalbC mice; conditions: i.m. injection
# Protocol: FIG. 40 illustrates the use of ELISA for detection of murine GM-CSF. BalbC mice (n=5/group) were injected i.m. with 5 or 10 μg non-pegylated, or 5 μg pegylated mGM-CSF. Mice received either a single injection or 4 daily injections. Serum was obtained 1, 3, 6, and 12 hours following the single injection or the fourth injection. mGM-CSF levels in serum were measured using the ELISA from R&D (Minneapolis).
# i. GM-CSF ELISA validation. A commercially available ELISA (R&D, Minneapolis) was validated for the detection of murine (m)GM-CSF in serum. In a pharmacokinetic study two formulations of mGM-CSF protein, non-pegylated or pegylated, were injectedi.m. and serum samples were assayed for mGM-CSF. […] The levels of non-pegylated mGM-CSF dropped rapidly within 3 hours following administration, whereas pegylated mGM-CSF was detectable over a 12 hour period.
# [2] = test system: DSS-induced colitis in Balb/C mice; assay: DSS-induced colitis model (5% DSS), validation, Disease Activity Index; type: in vivo; conditions: daily treatment, Mesopram/Metronidazole 50 mg/kg IP, mGM-CSF 5 μg non-pegylated, 5 or 10 μg pegylated
# Protocol: Disease was induced in BalbC mice (N=10/group) by DSS (5%) applied daily in the drinking water. Mesopram, Metronidazole, or yeast expressed non-pegylated respectively pegylated mGM-CSF, was administered daily over a period of 8 days. Clinical scores (Daily Activity Index (DAI), a cumulative index of: weight loss, stool consistency, and rectal bleeding) were recorded daily.
# (§1) Likewise, the DSS-induced mouse colitis model is useful for evaluating therapies for UC, IBD and CD. Disease is induced in mice by daily administration of 5% or 7% dextran sodium sulfate (DSS) in the drinking water over 8 days. Disease progression is monitored by the Daily Activity Index (DAI), a cumulative index of: weight loss, stool consistency, and rectal bleeding, which mimics the symptoms of UC, IBD and/or CD.
# vi. DSS-induced colitis model. Prior to the gene delivery study the model was established and validated in Balb/C mice using non-pegylated and pegylated mGM-CSF protein. Disease was induced in Balb/C mice with 5% dextran sodium sulfate (DSS), provided in the drinking water every day over a period of 8 days. As the main endpoint, the Disease Activity Index (DAI, a cumulative index of: weight loss, stool consistency, and rectal bleeding) was recorded daily. […]
# DSS-induced colitis = DSS-induced colitis model (7% DSS), proof of concept with pCMV-GMCSF plasmid DNA; type: in vivo, mice; conditions: plasmid single injection day 0 + EP, drugs and protein daily
# Protocol: Two concentrations of pCMV-mGMCSF were tested side by side with a control plasmid (pNull) and two mGM-CSF protein formulations, non-pegylated and pegylated in the DSS-induced colitis model (N=10/group). A single plasmid DNA injection was administered at day 0 followed by electroporation. Murine GM-CSF protein was injected s.c. daily. Disease was induced with 7% DSS in the drinking water and clinical scores (DIA) were recorded daily.
# as §1
# vii. […] In this study the efficacy of pGMCSF plasmid DNA was evaluated side by side with Mesopram, Metronidazole, non-pegylated or pegylated mGM-CSF. The disease was induced using 7% DSS, administered daily in the drinking water. Mesopram, Metronidazole and mGM-CSF protein were administered daily, using the same dosing regimen as described for the validation study. pGMCSF plasmid DNA was injected at day 0 followed by electroporation. […]
# [3] = mGM-CSF concentration in sera at day 8 of the DSS colitis study; conditions: final day of DSS study
# Protocol: At day 8, the final day of the study, mGM-CSF concentrations were measured in sera of all mice.
Molecule,time within which serum levels dropped rapidly following administration [1],DAI score [2],disease scores (DAI) (DSS-induced colitis),GM-CSF in sera at day 8 [3],period over which detectable in serum [1]
"non-pegylated mGM-CSF: yeast expressed non-pegylated murine GM-CSF protein (protein, UniProt P01587 18-141, looked up) Granulocyte-macrophage …: APTRSPITVTRPWKHVEAIKEALNLLDDMPVTLNEEVEVVSNEFSFKKLTCVQTRLKIFEQGLRGNFTKLKGALNMTASYYQTYCPPTPETDCETQVTTYADFIDSLKTFLTDIPFECKKPGQK",≤ 3 h,significantly reduced,efficacious,could be measured,
"pegylated mGM-CSF: pegylated murine GM-CSF protein (conjugate, UniProt P01587 18-141, looked up, PEG, pegylated murine GM-CSF protein) Granulocyte-macrophage …: APTRSPITVTRPWKHVEAIKEALNLLDDMPVTLNEEVEVVSNEFSFKKLTCVQTRLKIFEQGLRGNFTKLKGALNMTASYYQTYCPPTPETDCETQVTTYADFIDSLKTFLTDIPFECKKPGQK",,significantly reduced,efficacious,,12 h
